This note sets out measurements from patent publication US20210380675A1 (Kyowa Kirin, published 2021).

For experiment [1], the target named is T1, human IL-36γ, truncated (human, UniProt Q9NZH8 18-169).
T1 sequence: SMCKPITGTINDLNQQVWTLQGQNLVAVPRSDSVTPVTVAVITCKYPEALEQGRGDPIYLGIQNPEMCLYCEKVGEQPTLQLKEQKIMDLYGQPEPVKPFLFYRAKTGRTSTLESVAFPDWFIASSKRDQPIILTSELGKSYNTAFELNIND
Kind of experiment: cell-based or functional assay.

Experiment [2] deals with T2, human IL-36α (R&D Systems cat#6995-IL-010/CF) (human, UniProt Q9UHA7 6-158).
T2 sequence (looked up): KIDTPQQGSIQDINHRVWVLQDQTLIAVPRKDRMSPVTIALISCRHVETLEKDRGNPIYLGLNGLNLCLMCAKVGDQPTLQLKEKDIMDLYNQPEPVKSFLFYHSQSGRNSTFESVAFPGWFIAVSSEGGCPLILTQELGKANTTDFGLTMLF
Kind of experiment: cell-based or functional assay.

The target in experiment [3] is T3, human IL-36α(R12), truncated (human, UniProt Q9UHA7 6-158).
T3 construct: Untagged after removal of the His-SUMO tag; also called hIL-36alpha
T3 chain: T2 sequence (looked up) with Q7R
Kind of experiment: SPR, Biacore, 1:1 Langmuir fit; heads of c3 and c4 printed swapped. The protocol:
(§1) The humanized antibodies obtained in Example 6 were tested for their binding to recombinant human or cynomolgus macaque IL36a and IL-36γ in Biacore assays. The association time was set to 60 seconds, and the final dissociation time was set to 600 seconds. Equilibrium dissociation constant KD (kd/ka) of exemplary antibodies was determined using a 1:1 Langmuir fit model (see Tables 17-18 below).
On the technique in general: SPR reads the build-up and loss of mass on a sensor chip optically.

Experiment [4] addresses T1, human IL-36γ, truncated. The experiment is described as above. The protocol: as §1
The target of experiment [5] is T4, cynomolgus IL-36γ, truncated (cynomolgus macaque (Macaca fascicularis), UniProt Q9NZH8 18-167 (human entry), limits assumed).
T4 construct: Untagged after removal of the His-SUMO tag; also called cynomolgus IL-36 gamma; cyIL-36gamma
T4 chain: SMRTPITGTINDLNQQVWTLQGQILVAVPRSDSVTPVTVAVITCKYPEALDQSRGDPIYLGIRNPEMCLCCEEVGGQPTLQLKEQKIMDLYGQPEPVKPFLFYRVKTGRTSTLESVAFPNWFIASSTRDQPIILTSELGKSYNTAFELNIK
Described as above. How it is done:
as §1

The target in experiment [6] is T5, cynomolgus IL-36α, truncated (cynomolgus macaque (Macaca fascicularis), UniProt Q9UHA7 14-158 (human entry), limits assumed).
T5 construct: Untagged after removal of the His-SUMO tag; also called cynomolgus IL-36 alpha; cyIL-36alpha
T5 chain: T2 sequence (looked up) with I2S, D3E, T4M, Q7P, G8V, T24I, M34V, A40S, V74A
The experiment is described as above. The protocol: as §1

In experiment [7] the target is T3, human IL-36α(R12), truncated. The experiment in a line: SPR, Biacore, 1:1 Langmuir fit. The protocol: as §1
In experiment [8] the target is T1, human IL-36γ, truncated. Kind of experiment: SPR, Biacore, 1:1 Langmuir fit. How it is done: as §1
Experiment [9] has as its target T4, cynomolgus IL-36γ, truncated. Kind of experiment: SPR, Biacore, 1:1 Langmuir fit. How it is done: as §1
The target in experiment [10] is T5, cynomolgus IL-36α, truncated. The experiment in a line: SPR, Biacore, 1:1 Langmuir fit. How it is done: as §1

Changes are numbered by the printed parent chain.

B1: 144L249B LV9 HV10c (antibody, V domains shown)
VH: QVQLVQSGAEVKKPGASVKVSCKASGFNIKDTYIYWVRQAPGQGLEWIGRIDPAIGTTRYDPKFQGKATLTADTSTNTAYLELSSLRSEDTAVYYCARYDYSGSSFYFDYWGQGTLVTVSS
VL: QAVVTQEPSLTVSPGGTVTLTCRSSTGAVTTSNYANWVQEKPGQLFTGLIGGTNDRAPGVPARFSGSLLGGKAALTLSGAQPEDEADYFCALWYSNHLVFGGGTKLTVL
notes: Humanized
As for B1, in the experiment with human IL-36γ, truncated [1], the “IC50 of IL-8 secretion (AlphaLISA), HaCaT, 10 nM human IL-36γ” value worked out at 11.5 nM. Besides, the “IC50 of IL-8 secretion (AlphaLISA), HaCaT, 10 nM human IL-36α” value in experiment [2] is 5.13 nM. Moreover, the koff in experiment [3] amounted to 0.000843 s⁻¹; with human IL-36γ, truncated [4], 0.000625 s⁻¹; in experiment [5], 0.000603 s⁻¹; in [6], 0.00103 s⁻¹. Also, the on-rate (kon) in [3] is 850000 M⁻¹ s⁻¹; in the experiment with human IL-36γ, truncated [4] it was 999000 M⁻¹ s⁻¹; in experiment [5], 1.09e+06 M⁻¹ s⁻¹; in experiment [6] it was 1.53e+06 M⁻¹ s⁻¹. For the same molecule, the Kd came out at 0.992 nM in experiment [7]; 0.625 nM with human IL-36γ, truncated [8]; 0.552 nM in experiment [9]; 0.674 nM in [10].

Usually koff stands for the first-order rate constant of dissociation. Higher therefore signals a short-lived complex. One may read the kon as a measure of how fast the partners come together. The Kd is the equilibrium constant for the complex coming apart. Read a low Kd as higher affinity.
